From patent US11332546B2, “Protease inhibitory antibodies and methods of use thereof” (The Regents of The University of California, priority 2019, dated 2022)

T1: BACE2 (Homo sapiens, UniProt Q9Y5Z0)
T1 sequence (Q9Y5Z0 63-518): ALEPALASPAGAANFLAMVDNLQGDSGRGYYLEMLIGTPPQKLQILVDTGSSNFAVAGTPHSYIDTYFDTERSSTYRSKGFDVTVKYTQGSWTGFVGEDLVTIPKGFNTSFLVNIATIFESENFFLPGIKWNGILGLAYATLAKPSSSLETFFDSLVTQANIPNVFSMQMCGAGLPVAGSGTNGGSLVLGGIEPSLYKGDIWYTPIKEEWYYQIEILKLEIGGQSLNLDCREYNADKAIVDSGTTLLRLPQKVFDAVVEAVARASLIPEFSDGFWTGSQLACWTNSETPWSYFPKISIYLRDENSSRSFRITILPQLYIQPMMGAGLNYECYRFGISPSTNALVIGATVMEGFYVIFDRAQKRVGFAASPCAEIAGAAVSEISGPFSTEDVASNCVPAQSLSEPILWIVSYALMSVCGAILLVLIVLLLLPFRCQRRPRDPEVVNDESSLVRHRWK

B1: IgG B3B12: anti-BACE1 inhibitory Fab B3B12 converted into IgG format (antibody, V domains shown)
VH: EVQLVESGGGLVQPGGSLRLSCAASGFNIPYSSMHWVRQAPGKGLEWVASISSYSSSTSYADSVKGRFTISADTSKNTAYLQMNSLRAEDTAVYYCARYICGHRWRDFDMWRARTGVNYAMDYWGQGTLVTVSSAS
VL: DIQMTQSPSSLSASVGDRVTITCRASQSVGTYLNWYQQKPGKAPKLLIYATSNLRSGVPSRFSGSGSGTDFTLTISSLQPEDFATYYCQQSYSIPRFTFGPGTKLEIKR

Legend:
[1] = molecular target: T2, cdMMP-12 mutant D4 (Homo sapiens, UniProt P39900, A167E/A173P/A252Q/H206S/I245T/K233R/M156E/N119Q/N126H/R135E/T215V/V161I/Y113D/Y132K); assay: Bio-layer interferometry (BLItz) on cdMMP-12 D4; format: binding; details: read-out: Affinity on cdMMP-12 D4
T2 construct: hexahistidine (C); made in house; host or cells: E. coli BL21, pET32b (cytoplasmic, soluble fraction)
T2 sequence (P39900 106-263 Y113D/N119Q/N126H/Y132K/R135E/M156E/V161I/A167E/A173P/H206S/T215V/K233R/I245T/A252Q): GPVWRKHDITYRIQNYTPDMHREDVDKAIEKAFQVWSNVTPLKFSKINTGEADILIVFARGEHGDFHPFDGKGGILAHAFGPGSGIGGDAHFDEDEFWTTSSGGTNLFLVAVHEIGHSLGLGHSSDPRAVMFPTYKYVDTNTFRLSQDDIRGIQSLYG
Protocol: ELISA and binding kinetics measurement Purified cdMMP-9, cdMMP-12 D4/wt, and cdMMP-14 were biotinylated by using EZ-Link Sulfo-NHS-LC kit (Thermo Fisher). On streptavidin coated ELISA plates, 5 μg/mL biotinylated cdMMPs were immobilized and incubated with two-fold serially diluted purified Fabs. Bound Fabs were detected with anti-Fab-HRP (Sigma-Aldrich), and signals were developed by TMB substrate (Thermo Scientific) and measured using a microplate reader (BioTek). In competitive ELISA, 500 nM Fabs of interest were mixed with 0.01-10 μM GM6001 or 0.8-200 μM nTIMP-2 for 30 min, then transferred to ELISA plates coated with cdMMP-12 D4/wt for incubation 15 min at room temperature. Bound Fabs were detected using anti-Fab-HRP. For bio-layer interferometry (using ForteBio BLItz), biotinylated cdMMP-12 D4/wt was loaded onto streptavidin biosensors. After washing to establish baselines, 50, 100, or 200 nM of Fabs were associated with immobilized cdMMP-12 D4/wt for 200 sec, then dissociated into 50 mM HEPES, 150 mM NaCl pH 7.5 for 120 sec. Averages of measured kon and koff values were determined for KD calculations.

[2] = molecular target: T3, BACE1 (Homo sapiens, UniProt P56817); assay: FRET peptide inhibition assay, BACE1 (M-2420); format: biochemical; details: IgG format; BACE-1, FRET peptide
T3 construct: human β-secretase 1 (BACE1, residue 46-457); made in house; host or cells: HEK293F (secreted, protein A purified)
T3 sequence (P56817 46-457): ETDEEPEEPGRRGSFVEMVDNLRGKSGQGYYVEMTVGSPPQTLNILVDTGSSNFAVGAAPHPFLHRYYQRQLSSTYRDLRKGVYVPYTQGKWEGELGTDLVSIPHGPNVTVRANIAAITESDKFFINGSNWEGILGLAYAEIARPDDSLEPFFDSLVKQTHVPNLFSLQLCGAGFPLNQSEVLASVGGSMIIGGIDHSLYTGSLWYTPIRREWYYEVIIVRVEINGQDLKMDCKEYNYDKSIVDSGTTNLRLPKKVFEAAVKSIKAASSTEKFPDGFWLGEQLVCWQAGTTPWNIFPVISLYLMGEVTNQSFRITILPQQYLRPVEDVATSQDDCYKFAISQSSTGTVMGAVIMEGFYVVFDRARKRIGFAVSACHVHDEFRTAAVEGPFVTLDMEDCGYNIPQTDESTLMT
Protocol: (§1) For inhibition tests, 1 μM Fabs were 2-fold serially diluted into protease specific assay buffer and incubated with 1-10 nM proteases for 30 min at room temperature. […] Inhibition percentages at given concentrations were calculated by comparing the initial reaction rates in the presence or absence of inhibitor. IC50 was determined as the concentration that achieved 50% inhibition, and KI values were calculated using KI=IC50/(S/Km+1). Vmax and Km at various Fab concentrations were measured to determine the inhibition type. FRET inhibition assays were also used for selectivity tests of isolated Fabs with the relevant proteases.

[3] = molecular target: T1, BACE2; assay: FRET inhibition selectivity test, BACE2; format: biochemical; details: IgG
Protocol: as §1

[4] = molecular target: T3, BACE1; assay: Binding kinetics by biolayer interferometry, Fabs/IgGs on BACE1; details: IgG format
Protocol: Binding kinetics of produced antibodies towards associated protease targets were analyzed by using biolayer interferometry (ForteBio). For Fabs, biotinylated proteases were immobilized on streptavidin biosensors, and Fab binding to the sensors in absence of protease was monitored as backgrounds. For IgGs, protein A sensors were used and protease bindings without IgG were checked as backgrounds. kon and koff were determined for KD calculations. […] Fab in vitro stability was tested by incubating 1 μM Fab with 1 μM of the respective protease in the assay buffer for 12 hours and the samples were analyzed by SDS-PAGE.

| Molecule | Kd [1] [µM] | Inhibition Potency KI (associated IgG, in parentheses) [2] [µM] | Inhibition of BACE2 (selectivity) [3] | Binding Affinity KD (associated IgG, in parentheses) [4] [µM] |
| --- | --- | --- | --- | --- |
| nTIMP-2: N-terminal domain of tissue inhibitor of metalloproteinases 2, endogenous inhibitor of MMPs | 0.29 |  |  |  |
| nTIMP-1: N-terminal domain of tissue inhibitor of metalloproteinases 1, endogenous inhibitor of MMPs | 0.5 |  |  |  |
| B1 |  | 0.013 | but not BACE2 | 0.007 |
